Experimental data: patent US20250171520A1 (Regeneron, published 2025)

T1: human CD63 (human, UniProt P08962 2-238)
T1 construct: also called hCD63
T1 sequence: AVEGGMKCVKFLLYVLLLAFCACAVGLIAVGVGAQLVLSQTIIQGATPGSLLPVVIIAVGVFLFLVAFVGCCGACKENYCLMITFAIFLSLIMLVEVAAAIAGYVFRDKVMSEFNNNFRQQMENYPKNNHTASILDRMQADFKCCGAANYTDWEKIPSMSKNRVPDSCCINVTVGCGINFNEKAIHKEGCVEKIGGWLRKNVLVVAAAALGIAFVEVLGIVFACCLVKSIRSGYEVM


Columns and labels:
[1] = biological target: T1, human CD63; assay: ECL cell binding, LNCAP cells
Method: (§1) LNCAP cells were determined to have a lower human CD63 copy number than U87MG cells. Non-transfected NIH3T3 cells, which have no detectable expression of human CD63 by fluorescence activated cell sorting (FACS), were included as a negative control.
(§2) Briefly, cell lines were rinsed once in PBS buffer without Ca²⁺/Mg²⁺ and incubated for 10 minutes at 37° C. with Enzyme Free Cell Dissociation Solution (Millipore, Cat #S-004-C) to detach the cells. Cells were then washed once with PBS with Ca²⁺/Mg²⁺ and counted with a Cellometer™ Auto T4 cell counter (Nexcelom Bioscience, LLC). Approximately 2.0×10⁴ NIH3T3/hCD63, LNCAP, U87MG or NIH3T3 cells were seeded separately onto 96-well carbon electrode plates (Meso Scale Discovery, Cat #L15XB-6) and were then incubated for one hour at 37° C. Nonspecific binding sites were blocked with 2% BSA (w/v) in PBS with Ca²⁺/Mg²⁺ for one hour at room temperature (RT). Solutions containing anti-CD63 antibodies or isotype control antibodies at a range of concentrations (1.7 pM to 100nM) in 0.5% BSA (w/v) in PBS with Ca²⁺/Mg²⁺, as well as control buffer alone, were then added in duplicate to the plate-bound NIH3T3/hCD63, LNCAP, U87MG or NIH3T3 cells and incubated for one hour at RT. Plates were subsequently washed to remove unbound antibodies using an AquaMax2000 plate washer with a cell washing head (MDS Analytical Technologies). […] Plates were washed and then incubated with Read Buffer (MSD, Cat #R92TD-2) according to the manufacturer's instructions. Luminescent signals were measured using a SECTOR Imager (MSD). Luminescence intensity, measured in relative light units (RLU), was recorded to indicate the binding intensity of each antibody at the range of concentrations tested. The ratio of signal detected with 3.7 nM antibody binding to human CD63 expressing cells compared to the same concentration of antibody binding to negative cells was reported as an indication of specificity of CD63 binding.

[2] = biological target: T1, human CD63; assay: ECL cell binding, NIH3T3/hCD63 cells
Method: as §1, §2

[3] = biological target: T1, human CD63; assay: ECL cell binding, U87MG cells
Method: as §1, §2

[4] = biological target: T1, human CD63; assay: flow cytometry, HEK293 cells endogenously expressing human CD63
Method: Relative cell surface binding of the anti-CD63 antibodies to human CD63 expressing cells was accessed via flow cytometry using CD63 positive HEK293 cells (ATCC, Cat #CRL-1573), which endogenously express human CD63, and CD63 negative HEK293/CD63 knock out cells. For the assay, cells were plated in PBS without calcium and magnesium (VWR, Cat #45000-446), containing 2% FBS (Saradigm Cat #1500-500) (Staining Buffer) in 96 well V-bottom plates (Axygen Scientific, Cat #P-96-450-V-C-S). Cells were then incubated with anti-CD63 antibodies or isotype control antibodies at concentrations ranging from 100 nM to 1.7 pM for 30 minutes on ice. Wells containing no antibody were used as controls. HEK293/CD63KO cells were stained with only the highest concentration (100 nM) of the antibodies. […] Cells were then washed and fixed using a 50% solution of Cytofix (BD Biosciences, Cat #554655) diluted in PBS. Samples were run on the Intellicyte Hypercyt flow cytometer and results were analyzed in ForeCyt software (Intellicyte) to calculate the mean fluorescent intensity (MFI). Measured values were analyzed using a four parameter logistic equation over a 12-point response curve using GraphPad Prism and the resulting EC₅₀ values are reported (Table 12). The signal to noise ratio (S/N) was determined by calculating the ratio of the anti-CD63 antibodies or the control antibodies MFI to the wells containing no antibodies (Table 12).

[5] = biological target: T1, human CD63; assay: cell-based or functional assay
[6] = biological target: T2, recombinant human CD63 extracellular loop 2 expressed with a C-terminal Myc-Myc-hexahistidine (human); assay: SPR (Biacore), captured mAb, 25°C
T2 construct: also called hCD63 EC loop 2-MMH; human CD63 EC loop2-MMH
T2 sequence (chain, as listed by the source limits assumed): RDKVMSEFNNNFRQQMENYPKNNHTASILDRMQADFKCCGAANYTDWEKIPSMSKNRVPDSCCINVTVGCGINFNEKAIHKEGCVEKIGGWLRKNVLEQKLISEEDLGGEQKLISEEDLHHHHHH
Method: (§3) Equilibrium dissociation constants (KD) for different CD63loop reagents binding to purified anti-CD63 monoclonal antibodies were determined using a real-time surface plasmon resonance based Biacore T200 biosensor or Biacore 2000 biosensor. All binding studies were performed in 10 mM HEPES, 150 mM NaCl, 3 mM EDTA, and 0.05% v/v Surfactant Tween-20, pH 7.4 (HBS-ET) running buffer at 25° C. and 37° C. The Biacore CM5 sensor chip surface was first derivatized by amine coupling with either a rabbit anti-mouse Fc specific polyclonal antibody (GE Healthcare, Cat #BR100838) or an anti-human Fab kit (GE Healthcare, Cat #28958325) to capture anti-CD63 monoclonal antibodies. Binding studies were performed on either recombinant human CD63 extracellular loop 2 expressed with a C-terminal Myc-Myc-hexahistidine (hCD63 EC loop 2-MMH; SEQ ID NO:80) or recombinant human CD63 extracellular loop 2 expressed with a C-terminal human Fc tag (hCD63 EC loop 2-hFc; SEQ ID NO:81). Different concentrations of hCD63 EC loop 2-MMH or hCD63 EC loop 2-hFc (either tested at 50 nM-12.5 nM in a 4-fold dilution or at 90 nM-0.37 nM in 3-fold serial dilutions) were first prepared in HBS-ET running buffer and were injected over the anti-mouse Fc captured anti-CD63 monoclonal antibody surface for 4 minutes at a flow rate of […] or 50 μL/minute, while the dissociation of monoclonal antibody bound CD63 reagent was monitored for 8 or 10 minutes in HBS-ET running buffer. The association rate (kₐ) and dissociation rate (kd) were determined by fitting the real-time binding sensorgrams to a 1:1 binding model with mass transport limitation using Scrubber 2.0c curve-fitting software. Binding dissociation equilibrium constant (KD) and dissociative half-life (t½) were calculated from the kinetic rates as: […]
(§4) Binding kinetics parameters for human CD63 EC loop 2 protein binding to different anti-CD63 monoclonal antibodies of the invention at 25° C. and 37° C. are shown in Tables 15 through 18.

[7] = biological target: T3, recombinant human CD63 extracellular loop 2 expressed with a C-terminal human Fc tag (human); assay: SPR (Biacore), captured mAb, 25°C
T3 construct: also called hCD63 EC loop 2-hFc; human CD63 EC loop2-hFC
T3 sequence (chain, as listed by the source limits assumed): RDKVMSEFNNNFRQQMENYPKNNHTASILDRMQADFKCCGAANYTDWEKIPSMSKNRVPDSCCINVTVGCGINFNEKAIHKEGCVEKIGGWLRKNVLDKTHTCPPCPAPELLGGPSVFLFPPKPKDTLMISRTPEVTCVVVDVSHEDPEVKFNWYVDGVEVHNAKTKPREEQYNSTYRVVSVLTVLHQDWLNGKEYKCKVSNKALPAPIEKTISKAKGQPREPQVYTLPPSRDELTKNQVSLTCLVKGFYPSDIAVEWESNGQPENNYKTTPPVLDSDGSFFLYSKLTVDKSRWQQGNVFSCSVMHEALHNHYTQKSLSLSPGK
Method: as §3, §4

[8] = biological target: T2, recombinant human CD63 extracellular …; assay: SPR (Biacore), captured mAb, 37°C
Method: as §3, §4

[9] = biological target: T3, recombinant human CD63 extracellular …; assay: SPR (Biacore), captured mAb, 37°C
Method: as §3, §4

| Binder | EC50 [1] | ratio at 3.7 nM Ab of cell binding signal (RLU) to human CD63 cells relative to negative NIH3T3 [1] | EC50 [2] | ratio at 3.7 nM Ab of cell binding signal (RLU) to human CD63 cells relative to negative NIH3T3 [2] | ratio at 3.7 nM Ab of cell binding signal (RLU) to human CD63 cells relative to negative NIH3T3 [3] | HEK293 (S/N), MFI of antibody over wells with no antibody [4] | T47D (nM) IC50, indirect cytotoxicity with anti-mFc Fab-MMAF [5] | 50 nM or 90 nM Ag Bound (RU) [6] | t½ [6] | 50 nM Ag Bound (RU) [7] | t½ [7] | 50 nM Ag Bound (RU) [8] | t½ [8] | 50 nM Ag Bound (RU) [9] | t½ [9] | EC50 [3] | Kd [6] | koff [6] | kon [6] |
| --- | --- | --- | --- | --- | --- | --- | --- | --- | --- | --- | --- | --- | --- | --- | --- | --- | --- | --- | --- |
| H2M12450N (antibody, V domains shown, also called anti-CD63 antibody) VH: QVQLQESGPKVVKPSETLSLTCTVSGGSISSYYWNWIRQSPGKGLEWIGYTKRGYTDYNPSLRSRVTISEDTSKNQFSLRISSVTAADTAVYYCAQMGWGSHAFDMWGQGTMVAVSS VL: EIVLTQSPGTLSLSPGERATLSCRASQSVNSRYLAWYQQKPGQAPRLLIYGASSRATGIPDRCSGSGSGTDFTLTISRLEPEDFAVYYCQQYGSSPWTFGQGTKVEIK | 0.21 nM | 20 fold | 0.28 nM | 230 fold | 175 fold | 26.7 | 0.24 nM | 65 RU | 41 min | 134 RU | 248 min | 58 RU | 57 min | 138 RU | 236 min |  |  |  |  |
| H1M12451N (antibody, V domains shown, This one was detected or captured with anti-mouse Fc reagents; also called HIM12451; anti-CD63 antibody) VH: QVQLQESGPGLMKPSETLSLTCTVSGGSFSSYYWNWIRQSPGKGLEWIGYIRYSGDTNYKPSLKSRFTISIDTSKNLFSLRLKSVTAADTAVYYCARMGLGSDAFDIWGQGTMVTVSS VL: EIVLTQSPGTLSLSPGERATLSCRASQSVNNNYLAWYQQKPGQAPRLLIYGVFNRATNIPDRFSGSGSGTDFTLTISRLEPEDFAVYYCQQYGSSPWTFGQGTKVEIK | 1.7 nM | 7 fold | 0.57 nM | 91 fold | 52 fold | 31.6 |  | 52 RU | 27 min | 107 RU | 138 min | 44 RU | 6 min | 118 RU | 35 min | 0.95 nM |  |  |  |
| H2M12395N (antibody, V domains shown, also called anti-CD63 antibody) VH: QVQLQESGPRLVKPSETLSLTCIVSGGSISNFYWNWIRQSPGKGLEWIGYFFYTGTIDYNPSLKSRVTISLDTSKNQFSLNLRLLTAADAAVYYCARMGLGANAFDIWGHGTMVTVSS VL: EIVLTQSPGTLSLSPGERATLSCRASQHVSSNYLAWYQQKPGQAPRLLIYGGSSRATGIPDRFSGSGSGTDFTLTISRLEPADFAVFYCQQYGNSPWTFGQGTKVEMK | 0.35 nM | 18 fold | 0.29 nM | 256 fold | 171 fold | 21 |  | 42 RU | 6 min | 117 RU | 23 min | 31 RU | 1 min | 123 RU | 6 min | 0.79 nM |  |  |  |
| H4H12450N (antibody, V domains shown, also called anti-CD63 antibody) VH: QVQLQESGPKVVKPSETLSLTCTVSGGSISSYYWNWIRQSPGKGLEWIGYTKRGYTDYNPSLRSRVTISEDTSKNQFSLRISSVTAADTAVYYCAQMGWGSHAFDMWGQGTMVAVSS VL: not shown |  |  |  |  |  |  |  | 24 RU | 157 min |  |  |  |  |  |  |  | 0.53 nM | 7.37e-05 s⁻¹ | 139000 M⁻¹ s⁻¹ |
